Results on two molecules are retold here after patent publication US20200123214A1 (published 2020).

The target in experiment [1] is T1, recombinant human CSF1 protein (human) (UniProt P09603).
T1 sequence (looked up): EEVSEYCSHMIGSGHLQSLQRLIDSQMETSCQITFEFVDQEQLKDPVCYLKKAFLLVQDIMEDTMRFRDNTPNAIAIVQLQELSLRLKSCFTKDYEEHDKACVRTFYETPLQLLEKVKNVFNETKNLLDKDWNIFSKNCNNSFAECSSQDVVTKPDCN
Description: SPR, BioRad ProteOn XPR 360.

Experiment [2] deals with T2, murine CD40 overexpressed on CHO-K1 cells (CHOK1/CD40) (murine, UniProt P27512 20-289).
T2 construct: whole, on cells; also called mCD40
T2 sequence (looked up): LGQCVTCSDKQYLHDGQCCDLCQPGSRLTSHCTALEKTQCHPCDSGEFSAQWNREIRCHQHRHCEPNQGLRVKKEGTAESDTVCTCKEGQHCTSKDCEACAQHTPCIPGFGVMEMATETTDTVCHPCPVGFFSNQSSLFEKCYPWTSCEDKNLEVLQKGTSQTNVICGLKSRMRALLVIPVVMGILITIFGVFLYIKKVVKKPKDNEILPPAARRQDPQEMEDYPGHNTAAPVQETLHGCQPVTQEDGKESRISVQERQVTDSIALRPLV
The experiment is described as follows: flow cytometry on CHOK1/CD40 cells. On the procedure: For cell binding assays, immortalized cell lines were engineered to stably express CD40 (CHOK1/CD40). Increasing concentrations of the murine CSF1R-Fc-CD40L chimeric protein were incubated with the over-expressing (CHOK1/CD40) cell line for 2 hours. Cells were collected, washed, and stained with antibodies for the detection of chimeric protein binding by flow cytometry.
As a negative control, there was no detectable binding to the parental (non-CD40 expressing) CHOK1 cell line.

Consider CSF1R-Fc (Fc fusion), for which, in experiment [1], the Kd worked out at 0.000275 µM, the koff came to 0.000335 s⁻¹ and the kon was determined as 1.22e+06 M⁻¹ s⁻¹.

B1: murine CSF1R-Fc-CD40L chimeric protein (Fc fusion, UniProt P09581 20-515, looked up)
chain: APVIEPSGPELVVEPGETVTLRCVSNGSVEWDGPISPYWTLDPESPGSTLTTRNATFKNTGTYRCTELEDPMAGSTTIHLYVKDPAHSWNLLAQEVTVVEGQEAVLPCLITDPALKDSVSLMREGGRQVLRKTVYFFSPWRGFIIRKAKVLDSNTYVCKTMVNGRESTSTGIWLKVNRVHPEPPQIKLEPSKLVRIRGEAAQIVCSATNAEVGFNVILKRGDTKLEIPLNSDFQDNYYKKVRALSLNAVDFQDAGIYSCVASNDVGTRTATMNFQVVESAYLNLTSEQSLLQEVSVGDSLILTVHADAYPSIQHYNWTYLGPFFEDQRKLEFITQRAIYRYTFKLFLNRVKASEAGQYFLMAQNKAGWNNLTFELTLRYPPEVSVTWMPVNGSDVLFCDVSGYPQPSVTWMECRGHTDRCDEAQALQVWNDTHPEVLSQKPFDKVIIQSQLPIGTLKHNMTYFCKTHNSVGNSSQYFRAVSLGQSKQLPDESLFTPHRRLDKVEEEVNLHEDFVFIKKLKRCNKGEGSLSLLNCEEMRRQFEDLVKDITLNKEEKKENSFEMQRGDEDPQIAAHVVSEANSNAASVLQWAKKGYYTMKSNLVMLENGKQLTVKREGLYYVYTQVTFCSNREPSSQRPFIVGLWLKPSSGSERILLKAANTHSSSQLCEQQSVHLGGVFELQAGASVFVNVTEASQVIHRVGFSSFGLLKL
notes: constructed 'as described above in the Detailed Description and in U.S. 62/464,002'; also called mCSF1R-Fc-CD40L; mCD115-Fc-CD40L; not shown: Fc linker of the murine chimera
In turn, B1 gave an EC50 in experiment [2] of 0.0911 µM.
